Experimental findings from publication PMC11264237 (Archives of biochemistry and biophysics, 2024) are described below.

For this assay, the target named is T1, GST fused to the ATP8A1 tail (amino acids 1049-1163) (human, UniProt Q9Y2Q0 1049-1163).
T1 sequence (looked up): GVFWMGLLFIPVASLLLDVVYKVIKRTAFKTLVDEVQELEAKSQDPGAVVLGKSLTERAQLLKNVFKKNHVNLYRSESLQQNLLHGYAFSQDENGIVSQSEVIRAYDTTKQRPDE
The experiment in a line: pull-down.

B1: BIG1 (natural protein, human (endogenous in HeLa), UniProt Q9Y6D6 1-1849, looked up)
chain: MYEGKKTKNMFLTRALEKILADKEVKKAHHSQLRKACEVALEEIKAETEKQSPPHGEAKAGSSTLPPVKSKTNFIEADKYFLPFELACQSKCPRIVSTSLDCLQKLIAYGHLTGNAPDSTTPGKKLIDRIIETICGCFQGPQTDEGVQLQIIKALLTAVTSQHIEIHEGTVLQAVRTCYNIYLASKNLINQTTAKATLTQMLNVIFARMENQALQEAKQMEKERHRQHHHLLQSPVSHHEPESPQLRYLPPQTVDHISQEHEGDLDLHTNDVDKSLQDDTEPENGSDISSAENEQTEADQATAAETLSKNEVLYDGENHDCEEKPQDIVQNIVEEMVNIVVGDMGEGTTINASADGNIGTIEDGSDSENIQANGIPGTPISVAYTPSLPDDRLSVSSNDTQESGNSSGPSPGAKFSHILQKDAFLVFRSLCKLSMKPLSDGPPDPKSHELRSKILSLQLLLSILQNAGPIFRTNEMFINAIKQYLCVALSKNGVSSVPEVFELSLSIFLTLLSNFKTHLKMQIEVFFKEIFLYILETSTSSFDHKWMVIQTLTRICADAQSVVDIYVNYDCDLNAANIFERLVNDLSKIAQGRGSQELGMSNVQELSLRKKGLECLVSILKCMVEWSKDQYVNPNSQTTLGQEKPSEQEMSEIKHPETINRYGSLNSLESTSSSGIGSYSTQMSGTDNPEQFEVLKQQKEIIEQGIDLFNKKPKRGIQYLQEQGMLGTTPEDIAQFLHQEERLDSTQVGEFLGDNDKFNKEVMYAYVDQHDFSGKDFVSALRMFLEGFRLPGEAQKIDRLMEKFAARYLECNQGQTLFASADTAYVLAYSIIMLTTDLHSPQVKNKMTKEQYIKMNRGINDSKDLPEEYLSAIYNEIAGKKISMKETKELTIPTKSSKQNVASEKQRRLLYNLEMEQMAKTAKALMEAVSHVQAPFTSATHLEHVRPMFKLAWTPFLAAFSVGLQDCDDTEVASLCLEGIRCAIRIACIFSIQLERDAYVQALARFTLLTVSSGITEMKQKNIDTIKTLITVAHTDGNYLGNSWHEILKCISQLELAQLIGTGVKPRYISGTVRGREGSLTGTKDQAPDEFVGLGLVGGNVDWKQIASIQESIGETSSQSVVVAVDRIFTGSTRLDGNAIVDFVRWLCAVSMDELLSTTHPRMFSLQKIVEISYYNMGRIRLQWSRIWEVIGDHFNKVGCNPNEDVAIFAVDSLRQLSMKFLEKGELANFRFQKDFLRPFEHIMKRNRSPTIRDMVVRCIAQMVNSQAANIRSGWKNIFSVFHLAASDQDESIVELAFQTTGHIVTLVFEKHFPATIDSFQDAVKCLSEFACNAAFPDTSMEAIRLIRHCAKYVSDRPQAFKEYTSDDMNVAPEDRVWVRGWFPILFELSCIINRCKLDVRTRGLTVMFEIMKTYGHTYEKHWWQDLFRIVFRIFDNMKLPEQQTEKAEWMTTTCNHALYAICDVFTQYLEVLSDVLLDDIFAQLYWCVQQDNEQLARSGTNCLENVVILNGEKFTLEIWDKTCNCTLDIFKTTIPHALLTWRPNSGETAPPPPSPVSEKPLDTISQKSVDIHDSIQPRSVDNRPQAPLVSASAVNEEVSKIKSTAKFPEQKLFAALLIKCVVQLELIQTIDNIVFFPATSKKEDAENLAAAQRDAVDFDVRVDTQDQGMYRFLTSQQLFKLLDCLLESHRFAKAFNSNNEQRTALWKAGFKGKSKPNLLKQETSSLACGLRILFRMYMDESRVSAWEEVQQRLLNVCSEALSYFLTLTSESHREAWTNLLLLFLTKVLKISDNRFKAHASFYYPLLCEIMQFDLIPELRAVLRRFFLRIGVVFQISQPPEQELGINKQ
For the molecule B1, the “% of total input bound to the beads” value was 24 % of total input.

B2: BIG2 (natural protein, human (endogenous in HeLa), UniProt Q9Y6D5 1-1785, looked up)
chain: MQESQTKSMFVSRALEKILADKEVKRPQHSQLRRACQVALDEIKAEIEKQRLGTAAPPKANFIEADKYFLPFELACQSKSPRVVSTSLDCLQKLIAYGHITGNAPDSGAPGKRLIDRIVETICSCFQGPQTDEGVQLQIIKALLTAVTSPHIEIHEGTILQTVRTCYNIYLASKNLINQTTAKATLTQMLNVIFTRMENQVLQEARELEKPIQSKPQSPVIQAAAVSPKFVRLKHSQAQSKPTTPEKTDLTNGEHARSDSGKVSTENGDAPRERGSSLSGTDDGAQEVVKDILEDVVTSAIKEAAEKHGLTEPERVLGELECQECAIPPGVDENSQTNGIADDRQSLSSADNLESDAQGHQVAARFSHVLQKDAFLVFRSLCKLSMKPLGEGPPDPKSHELRSKVVSLQLLLSVLQNAGPVFRTHEMFINAIKQYLCVALSKNGVSSVPDVFELSLAIFLTLLSNFKMHLKMQIEVFFKEIFLNILETSTSSFEHRWMVIQTLTRICADAQCVVDIYVNYDCDLNAANIFERLVNDLSKIAQGRSGHELGMTPLQELSLRKKGLECLVSILKCMVEWSKDLYVNPNHQTSLGQERLTDQEIGDGKGLDMARRCSVTSMESTVSSGTQTTVQDDPEQFEVIKQQKEIIEHGIELFNKKPKRGIQFLQEQGMLGTSVEDIAQFLHQEERLDSTQVGDFLGDSARFNKEVMYAYVDQLDFCEKEFVSALRTFLEGFRLPGEAQKIDRLMEKFAARYIECNQGQTLFASADTAYVLAYSIIMLTTDLHSPQVKNKMTKEQYIKMNRGINDSKDLPEEYLSSIYEEIEGKKIAMKETKELTIATKSTKQNVASEKQRRLLYNLEMEQMAKTAKALMEAVSHAKAPFTSATHLDHVRPMFKLVWTPLLAAYSIGLQNCDDTEVASLCLEGIRCAIRIACIFGMQLERDAYVQALARFSLLTASSSITEMKQKNIDTIKTLITVAHTDGNYLGNSWHEILKCISQLELAQLIGTGVKTRYLSGSGREREGSLKGHTLAGEEFMGLGLGNLVSGGVDKRQMASFQESVGETSSQSVVVAVDRIFTGSTRLDGNAIVDFVRWLCAVSMDELASPHHPRMFSLQKIVEISYYNMNRIRLQWSRIWHVIGDHFNKVGCNPNEDVAIFAVDSLRQLSMKFLEKGELANFRFQKDFLRPFEHIMKKNRSPTIRDMAIRCIAQMVNSQAANIRSGWKNIFAVFHQAASDHDGNIVELAFQTTCHIVTTIFQHHFPAAIDSFQDAVKCLSEFACNAAFPDTSMEAIRLIRFCGKYVSERPRVLQEYTSDDMNVAPGDRVWVRGWFPILFELSCIINRCKLDVRTRGLTVMFEIMKSYGHTFEKHWWQDLFRIVFRIFDNMKLPEQLSEKSEWMTTTCNHALYAICDVFTQFYEALNEVLLSDVFAQLQWCVKQDNEQLARSGTNCLENLVISNGEKFSPEVWDETCNCMLDIFKTTIPHVLLTWRPVGMEEDSSEKHLDVDLDRQSLSSIDKNPSERGQSQLSNPTDDSWKGRPYANQKLFASLLIKCVVQLELIQTIDNIVFYPATSKKEDAEHMVAAQQDTLDADIHIETEDQGMYKYMSSQHLFKLLDCLQESHSFSKAFNSNYEQRTVLWRAGFKGKSKPNLLKQETSSLACCLRILFRMYVDENRRDSWEEIQQRLLTVCSEALAYFITVNSESHREAWTSLLLLLLTKTLKINDEKFKAHASMYYPYLCEIMQFDLIPELRAVLRKFFLRIGVVYKIWIPEEPSQVPAALSPVW
Regarding B2, the “% of total input bound to the beads” value is 18.5 % of total input.
